In the Human Domainome abundance scans (Beltran et al. 2025):
± gives the uncertainty stated by the source.

Test: abundance fitness (aPCA) (normalised: wild type 0, dead -1); higher = more abundant; growth selection in yeast, the domain comes from the species named
Conditions: Homo sapiens
Work on “Ventral anterior homeobox 1 F119P, Q5SQQ9” yielded an abundance fitness of -0.978 ± 0.34.
With “Ventral anterior homeobox 1 Y113H, Q5SQQ9” the abundance fitness was -0.096 ± 0.25.
“Ventral anterior homeobox 1 L115R, Q5SQQ9” gave an abundance fitness of -0.918 ± 0.16.
Work on “Ventral anterior homeobox 1 Q111E, Q5SQQ9” yielded an abundance fitness of -0.393 ± 0.17.
In the case of “Ventral anterior homeobox 1 F119K, Q5SQQ9”, the abundance fitness is reported as -0.837 ± 0.31.
For “Ventral anterior homeobox 1 Y113E, Q5SQQ9”, the abundance fitness was 0.209 ± 0.17.
In the case of “Ventral anterior homeobox 1 Q111S, Q5SQQ9”, the abundance fitness is reported as -0.727 ± 0.14.
Substance “Ventral anterior homeobox 1 Q111N, Q5SQQ9” has an abundance fitness of -0.262 ± 0.24.
For “Ventral anterior homeobox 1 F119E, Q5SQQ9”, the abundance fitness was -1.16 ± 0.3.
Substance “Ventral anterior homeobox 1 Q111M, Q5SQQ9” has an abundance fitness of -0.31 ± 0.19.
In the case of “Ventral anterior homeobox 1 Q111K, Q5SQQ9”, the abundance fitness is reported as -0.599 ± 0.28.
Work on “Ventral anterior homeobox 1 F119N, Q5SQQ9” yielded an abundance fitness of -0.658 ± 0.32.
For “Ventral anterior homeobox 1 L115E, Q5SQQ9”, the abundance fitness was -0.719 ± 0.29.
“Ventral anterior homeobox 1 Q111A, Q5SQQ9” showed an abundance fitness of -0.226 ± 0.13.
Substance “Ventral anterior homeobox 1 F119S, Q5SQQ9” has an abundance fitness of -0.64 ± 0.18.
Substance “Ventral anterior homeobox 1 Y113N, Q5SQQ9” has an abundance fitness of 0.168 ± 0.38.
With “Ventral anterior homeobox 1 F119Q, Q5SQQ9” the abundance fitness was -0.727 ± 0.39.
In the case of “Ventral anterior homeobox 1 L115K, Q5SQQ9”, the abundance fitness is reported as -0.821 ± 0.41.
In the case of “Ventral anterior homeobox 1 Q111F, Q5SQQ9”, the abundance fitness is reported as -0.954 ± 0.32.
Work on “Ventral anterior homeobox 1 F119A, Q5SQQ9” yielded an abundance fitness of -0.74 ± 0.21.
Work on “Ventral anterior homeobox 1 Q111C, Q5SQQ9” yielded an abundance fitness of -0.214 ± 0.18.
With “Ventral anterior homeobox 1 Q111P, Q5SQQ9” the abundance fitness was -0.716 ± 0.21.
In the case of “Ventral anterior homeobox 1 Q111T, Q5SQQ9”, the abundance fitness is reported as -0.068 ± 0.16.
With “Ventral anterior homeobox 1 Q111L, Q5SQQ9” the abundance fitness was -0.807 ± 0.17.
“Ventral anterior homeobox 1 F119R, Q5SQQ9” gave an abundance fitness of -0.88 ± 0.17.
For “Ventral anterior homeobox 1 Q111D, Q5SQQ9”, the abundance fitness was -0.564 ± 0.18.
Substance “Ventral anterior homeobox 1 F119T, Q5SQQ9” has an abundance fitness of -0.856 ± 0.29.
Substance “Ventral anterior homeobox 1 Y113R, Q5SQQ9” has an abundance fitness of -0.012 ± 0.097.
Work on “Ventral anterior homeobox 1 Q111I, Q5SQQ9” yielded an abundance fitness of -0.231 ± 0.27.
In the case of “Ventral anterior homeobox 1 Q111H, Q5SQQ9”, the abundance fitness is reported as -0.355 ± 0.17.
Substance “Ventral anterior homeobox 1 Y113G, Q5SQQ9” has an abundance fitness of 0.01 ± 0.093.
In the case of “Ventral anterior homeobox 1 L115D, Q5SQQ9”, the abundance fitness is reported as -0.822 ± 0.4.
Work on “Ventral anterior homeobox 1 Y113D, Q5SQQ9” yielded an abundance fitness of 0.287 ± 0.2.
Substance “Ventral anterior homeobox 1 Y113K, Q5SQQ9” has an abundance fitness of -0.004 ± 0.24.
“Ventral anterior homeobox 1 L115G, Q5SQQ9” gave an abundance fitness of -0.763 ± 0.16.
In the case of “Ventral anterior homeobox 1 Q111V, Q5SQQ9”, the abundance fitness is reported as -0.048 ± 0.12.
With “Ventral anterior homeobox 1 Q111G, Q5SQQ9” the abundance fitness was -0.715 ± 0.11.
For “Ventral anterior homeobox 1 L115N, Q5SQQ9”, the abundance fitness was -0.637 ± 0.35.
Work on “Ventral anterior homeobox 1 Q111R, Q5SQQ9” yielded an abundance fitness of -0.732 ± 0.12.
Work on “Ventral anterior homeobox 1 F119G, Q5SQQ9” yielded an abundance fitness of -0.857 ± 0.16.
